Assay [1] has as its target GABAA receptor (GABAAR β2/3 subunits) (mouse (endogenous in striatum)) (UniProt P63137). Description: co-IP.
Assay [2] has as its target tubulin (α-tubulin) (mouse (endogenous in striatum)) (UniProt P68369). Description: co-IP.

Chain of UniProt P63137 (P63137 whole entry, looked up): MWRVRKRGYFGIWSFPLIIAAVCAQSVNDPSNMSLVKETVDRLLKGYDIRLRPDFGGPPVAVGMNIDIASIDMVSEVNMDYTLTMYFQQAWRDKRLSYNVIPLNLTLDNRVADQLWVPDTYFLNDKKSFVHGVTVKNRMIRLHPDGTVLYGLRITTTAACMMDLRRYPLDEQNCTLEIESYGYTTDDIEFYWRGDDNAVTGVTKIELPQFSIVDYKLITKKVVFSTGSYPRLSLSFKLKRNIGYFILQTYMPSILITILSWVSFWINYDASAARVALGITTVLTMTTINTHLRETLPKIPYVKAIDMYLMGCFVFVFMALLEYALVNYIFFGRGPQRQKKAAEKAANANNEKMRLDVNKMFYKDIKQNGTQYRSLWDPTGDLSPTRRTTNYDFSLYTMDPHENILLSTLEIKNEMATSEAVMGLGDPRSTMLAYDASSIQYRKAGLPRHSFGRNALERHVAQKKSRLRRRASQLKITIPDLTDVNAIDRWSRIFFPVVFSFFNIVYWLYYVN

Take “KIF5 heavy chain (from UniProt Q61768 1-963) (natural protein)”: the co-precipitated amount in HD (N171-82Q) mice, % of WT mice was 41.5 % of WT in assay [1] and 35.5 % of WT in assay [2].

As for “tubulin (α-tubulin) (from UniProt P68369 1-451) (natural protein)”, in assay [1], the co-precipitated amount in HD (N171-82Q) mice, % of WT mice was 67.4 % of WT.

As for “GABAA receptor (GABAAR β2/3 subunits) (from UniProt P63137 26-512; P63080 26-473)”, the co-precipitated amount in HD (N171-82Q) mice, % of WT mice in assay [2] is 65.3 % of WT.

B1: huntingtin associated protein 1 (HAP1) (natural protein)
chain: MRPKEQVQSGAGDGTGSGDPAAGTPTTQPAVGPAPEPSAEPKPAPAQGTGSGQKSGSRTKTGSFCRSMIIGDSDAPWTRYVFQGPYGPRATGLGTGKAEGIWKTPAAYIGRRPGVSGPERAAFIRELQEALCPNPPPTKKITEDDVKVMLYLLEEKERDLNTAARIGQSLVKQNSVLMEENNKLETMLGSAREEILHLRKQVNLRDDLLQLYSDSDDDDDEEDEEDEEEGEEEEREGQRDQDQQHDHPYGAPKPHPKAETAHRCPQLETLQQKLRLLEEENDHLREEASHLDNLEDEEQMLILECVEQFSEASQQMAELSEVLVLRLEGYERQQKEITQLQAEITKLQQRCQSYGAQTEKLQQMLASEKGIHSESLRAGSYMQDYGSRPRDRQEDGKSHRQRSSMPAGSVTHYGYSVPLDALPSFPETLAEELRTSLRKFITDPAYFMERRDTHCREGRKKEQRAMPPPPAQDLKPPEDFEAPEELVPEEELGAIEEVGTAEDGQAEENEQASEETEAWEEVEPEVDETTRMNVVVSALEASGLGPSHLDMKYVLQQLSNWQDAHSKRQQKQKVVPKDSPTPQQQTNMGGGILEQQPRVPTQDSQRLEEDRATHSPSAREEEGPSGAT
Take B1: the co-precipitated amount in HD (N171-82Q) mice, % of WT mice in assay [1] was 42.9 % of WT.

The values above are taken from paper PMC3323696.
